From US20230220042A1 (SHANGHAI JIAO TONG UNIVERSITY SCHOOL OF MEDICINE, published 2023)
Changes are numbered by the printed parent chain. In names and notes the source's numbering stands.

T1: Biotin-FcγRIIB (human, UniProt P31994 43-217, limits assumed, biotin-labelled)
T1 construct: Bought, biotin-labelled; used at 1 µg/ml for staining and sorting; also called human FcγRIIB; CD32b
T1 sequence (looked up): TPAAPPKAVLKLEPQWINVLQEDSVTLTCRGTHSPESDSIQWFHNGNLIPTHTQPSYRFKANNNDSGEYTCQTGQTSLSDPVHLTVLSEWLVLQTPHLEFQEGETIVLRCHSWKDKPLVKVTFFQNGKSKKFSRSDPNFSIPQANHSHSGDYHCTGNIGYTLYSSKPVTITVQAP

B1: human IgG2 anti-mouse CD40 surface displayed antibody, Fc mutant A330R (antibody, name in EU numbering)
light chain (with the P2A rest): DTVLTQSPALAVSPGERVTISCRASDSVSTLMHWYQQKPGQQPKLLIYLASHLESGVPARFSGSGSGTDFTLTIDPVEADDTATYYCQQSWNDPWTFGGGTKLELKRTVAAPSVFIFPPSDEQLKSGTASVVCLLNNFYPREAKVQWKVDNALQSGNSQESVTEQDSKDSTYSLSSTLTLSKADYEKHKVYACEVTHQGLSSPVTKSFNRGECGSGATNFSLLKQAGDVEENPG
heavy chain: EVQLVESDGGLVQPGRSLKLPCAASGFTFSDYYMAWVRQAPTKGLEWVASISYDGSSTYYRDSVKGRFTISRDNAKSTLYLQMDSLRSEDTATYYCGRHSSYFDYWGQGVMVTVSSASTKGPSVFPLAPCSRSTSESTAALGCLVKDYFPEPVTVSWNSGALTSGVHTFPAVLQSSGLYSLSSVVTVPSSNFGTQTYTCNVDHKPSNTKVDKTVERKCCVECPPCPAPPVAGPSVFLFPPKPKDTLMISRTPEVTCVVVDVSHEDPEVQFNWYVDGVEVHNAKTKPREEQFNSTFRVVSVLTVVHQDWLNGKEYKCKVSNKGLPRPIEKTISKTKGQPREPQVYTLPPSREEMTKNQVSLTCLVKGFYPSDIAVEWESNGQPENNYKTTPPMLDSDGSFFLYSKLTVDKSRWQQGNVFSCSVMHEALHNHYTQKSLSLSPGKLEPPPSTVSNMATVAVLVVLGAAIVTGAVVAFVMKMRRRNTGGKGGDYALAPGSQTSDLSLPDCKVMVHDPHSLA
notes: as m1; positions are Eu numbers; copies: 2 + 2
B2: human IgG2 anti-mouse CD40 surface displayed antibody, Fc mutant S298N (antibody, name in EU numbering)
light chain (with the P2A rest): B1 light chain (with the P2A rest)
heavy chain: B1 heavy chain with S293N, R325A
notes: as for B1
B3: human IgG2 anti-mouse CD40 surface displayed antibody, Fc mutant S298K (antibody, name in EU numbering)
light chain (with the P2A rest): B1 light chain (with the P2A rest)
heavy chain: B1 heavy chain with S293K, R325A
notes: as for B1
B4: human IgG2 anti-mouse CD40 surface displayed antibody, Fc mutant L328E/I332T (antibody, name in EU numbering)
light chain (with the P2A rest): B1 light chain (with the P2A rest)
heavy chain: B1 heavy chain with L323E, R325A, I327T
notes: as for B1
B5: human IgG2 anti-mouse CD40 surface displayed antibody, Fc mutant S267A (antibody, name in EU numbering)
light chain (with the P2A rest): B1 light chain (with the P2A rest)
heavy chain: B1 heavy chain with S262A, R325A
notes: as for B1
B6: human IgG2 anti-mouse CD40 surface displayed antibody, Fc mutant S298L (antibody, name in EU numbering)
light chain (with the P2A rest): B1 light chain (with the P2A rest)
heavy chain: B1 heavy chain with S293L, R325A
notes: as for B1
B7: human IgG2 anti-mouse CD40 surface displayed antibody, Fc mutant P271C (antibody, name in EU numbering)
light chain (with the P2A rest): B1 light chain (with the P2A rest)
heavy chain: B1 heavy chain with P266C, R325A
notes: as for B1
B8: human IgG2 anti-mouse CD40 surface displayed antibody, Fc mutant P331C (antibody, name in EU numbering)
light chain (with the P2A rest): B1 light chain (with the P2A rest)
heavy chain: B1 heavy chain with R325A, P326C
notes: as for B1
B9: human IgG2 anti-mouse CD40 surface displayed antibody, Fc mutant G327A (antibody, name in EU numbering)
light chain (with the P2A rest): B1 light chain (with the P2A rest)
heavy chain: B1 heavy chain with G322A, R325A
notes: as for B1
B10: human IgG2 anti-mouse CD40 surface displayed antibody, Fc mutant L328E (antibody, name in EU numbering)
light chain (with the P2A rest): B1 light chain (with the P2A rest)
heavy chain: B1 heavy chain with L323E, R325A
notes: as for B1
B11: human IgG2 anti-mouse CD40 surface displayed antibody, Fc mutant P331T (antibody, name in EU numbering)
light chain (with the P2A rest): B1 light chain (with the P2A rest)
heavy chain: B1 heavy chain with R325A, P326T
notes: as for B1
B12: human IgG2 anti-mouse CD40 surface displayed antibody, Fc mutant S298E (antibody, name in EU numbering)
light chain (with the P2A rest): B1 light chain (with the P2A rest)
heavy chain: B1 heavy chain with S293E, R325A
notes: as for B1
B13: human IgG2 anti-mouse CD40 surface displayed antibody, Fc mutant V266A (antibody, name in EU numbering)
light chain (with the P2A rest): B1 light chain (with the P2A rest)
heavy chain: B1 heavy chain with V261A, R325A
notes: as for B1
B14: human IgG2 anti-mouse CD40 surface displayed antibody, Fc mutant I332C (antibody, name in EU numbering)
light chain (with the P2A rest): B1 light chain (with the P2A rest)
heavy chain: B1 heavy chain with R325A, I327C
notes: as for B1
B15: human IgG2 anti-mouse CD40 surface displayed antibody, Fc mutant S267M (antibody, name in EU numbering)
light chain (with the P2A rest): B1 light chain (with the P2A rest)
heavy chain: B1 heavy chain with S262M, R325A
notes: as for B1
B16: human IgG2 anti-mouse CD40 surface displayed antibody, Fc mutant I332A (antibody, name in EU numbering)
light chain (with the P2A rest): B1 light chain (with the P2A rest)
heavy chain: B1 heavy chain with R325A, I327A
notes: as for B1
B17: anti-human OX40 antibody, human IgG2 Fc mutant Mut_8 (V266L/L328W) (antibody, name in EU numbering)
heavy: QVQLQESGPGLVKPSGTLSLTCAVSGGSISSSIWWSWVRQPPGKGLEWIGEIHHSGNTNCNPSLKSRVTISIDKSKNQFSLKLTSVTAADTAVYYCARAGTGTTLDYWGQGTLVTVSSASTKGPSVFPLAPCSRSTSESTAALGCLVKDYFPEPVTVSWNSGALTSGVHTFPAVLQSSGLYSLSSVVTVPSSNFGTQTYTCNVDHKPSNTKVDKTVERKCCVECPPCPAPPVAGPSVFLFPPKPKDTLMISRTPEVTCVVVDLSHEDPEVQFNWYVDGVEVHNAKTKPREEQFNSTFRVVSVLTVVHQDWLNGKEYKCKVSNKGWPAPIEKTISKTKGQPREPQVYTLPPSREEMTKNQVSLTCLVKGFYPSDIAVEWESNGQPENNYKTTPPMLDSDGSFFLYSKLTVDKSRWQQGNVFSCSVMHEALHNHYTQKSLSLSPGK
light: EIVLTQSPGTLSLSPGERATLSCRASQSVSGDYLAWYQQKLGQAPRLLIYGASIRATGIPDRFSGSGSGTDFTLTISKLEPEDFAVYYCQQYGSSPLTFGGGTKVEIKRTVAAPSVFIFPPSDEQLKSGTASVVCLLNNFYPREAKVQWKVDNALQSGNSQESVTEQDSKDSTYSLSSTLTLSKADYEKHKVYACEVTHQGLSSPVTKSFNRGEC
B18: anti-human OX40 antibody, human IgG2 Fc mutant Mut_19 (V266L/S267E/H268S/E269V/P271C) (antibody, name in EU numbering)
heavy: B17 heavy with S264E, H265S, E266V, P268C, W325L
light: B17 light
B19: anti-human OX40 antibody, human IgG2 Fc mutant Mut_2 (H268D/S298L/L328W) (antibody, name in EU numbering)
heavy: B17 heavy with L263V, H265D, S295L
light: B17 light
B20: anti-human OX40 antibody, human IgG2 Fc mutant Mut_22 (V266L/S267M/H268E/P271Q) (antibody, name in EU numbering)
heavy: B17 heavy with S264M, H265E, P268Q, W325L
light: B17 light
B21: anti-human OX40 antibody, human IgG2 Fc mutant Mut_23 (V266L/S267E/E269K/P271G) (antibody, name in EU numbering)
heavy: B17 heavy with S264E, E266K, P268G, W325L
light: B17 light

target: T1, Biotin-FcγRIIB; assay: FACS sorting of displayed Fc library on biotin-FcγRIIB, NGS

Increased factor b Site 2 (point mutation/wild-type)	Enrichment factor (after/before sorting)	Increased factor a (enrichment factor/wild-type enrichment factor)	Increased factor b Site 1 (point mutation/wild-type)	Molecule
0				B1
2.3				B2
4.4				B3
	55.1	36.9		B4
			5.5	B5
2.9				B6
29.9				B7
0.2				B8
			3.4	B9
			0.1	B10
0.1				B11
7.1				B12
			3.1	B13
2.7				B14
			2.6	B15
16.4				B16

target: human OX40 (human) (UniProt P43489); assay: cell-based or functional assay
Sequence (P43489 29-277): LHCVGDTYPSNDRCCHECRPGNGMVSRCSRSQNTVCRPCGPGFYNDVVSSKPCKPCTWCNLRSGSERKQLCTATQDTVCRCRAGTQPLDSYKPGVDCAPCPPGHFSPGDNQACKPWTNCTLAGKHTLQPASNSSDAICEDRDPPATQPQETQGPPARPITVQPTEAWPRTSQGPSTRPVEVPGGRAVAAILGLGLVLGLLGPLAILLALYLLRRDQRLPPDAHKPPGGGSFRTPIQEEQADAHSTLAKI

Average increased factor of the activity over wild-type IgG2 of two experiments	Experiment 1 CFSE fluorescence intensity, 0.01 µg/ml	Experiment 1 CFSE fluorescence intensity, 0.1 µg/ml	Experiment 1 CFSE fluorescence intensity, 1 µg/ml	Experiment 2 CFSE fluorescence intensity, 0.1 µg/ml	Experiment 2 CFSE fluorescence intensity, 1 µg/ml	Average relative activity of two experiments	Experiment 1 average relative activity	Experiment 1 relative activity, 0.01 µg/ml	Experiment 1 relative activity, 0.1 µg/ml	Molecule
0.65	1020	1080	1070	2730	2590					Ctrl hIgG (antibody)
12.3	844	719	799	1810	1440	0.54	0.46	0.36	0.59	B17
10.5	880	735	824	2090	1670	0.46	0.42	0.3	0.56	B18
16.5	685	654	677	1550	1150	0.72	0.67	0.65	0.71	B19
9.9				2290	1790	0.43				B20
9.8	898	777	843	2160	1600	0.43	0.37	0.26	0.48	B21

same assay, conditions: not given

Experiment 1 relative activity, 1 µg/ml	Experiment 2 average relative activity	Experiment 2 relative activity, 0.1 µg/ml	Experiment 2 relative activity, 1 µg/ml	Molecule
0.44	0.65	0.55	0.75	B17
0.4	0.52	0.41	0.63	B18
0.66	0.8	0.69	0.9	B19
	0.43	0.3	0.56	B20
0.36	0.52	0.37	0.67	B21
